pKd: −log10 of the molar value. Like-named read-outs stand apart in the source and are kept apart here.
Experiments:
[1] = biological target: integrin β3 transmembrane-cytoplasmic domain (TM/tail, residues 685-762) embedded in Nanodiscs (UniProt P05106); experiment: FRET or BRET
[2] = biological target: integrin β3 transmembrane-cytoplasmic domain (TM/tail, residues 685-762) embedded in Nanodiscs (UniProt P05106); experiment: FRET or BRET; remark: listed apart in the source

Chain of UniProt P05106 (P05106 711-788): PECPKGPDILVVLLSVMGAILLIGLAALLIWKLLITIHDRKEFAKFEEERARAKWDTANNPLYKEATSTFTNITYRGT

- pKd [1]: 6.13
- fold increase in affinity over 50% DMPS Nanodiscs without the integrin tail [1]: 2 fold
- pKd [2]: 6.24
Substance: talin-1 head domain (THD) I398C, Uniblue A labelled (from UniProt P26039 1-433) (domain or fragment)

— PMC5808563
